Entries after “also recorded” stand apart in the source; their conditions may differ.
T1: CD97 (ADGRE5) isoform 1 ectodomain, purified and biotinylated (human, UniProt P48960 21-552, limits assumed, biotinylated in vitro using the BirA enzyme)
T1 construct: the whole entry for isoform 1 is named here; also called CD97 isoform 1; Biotinylated CD97 isoform 1
T1 sequence: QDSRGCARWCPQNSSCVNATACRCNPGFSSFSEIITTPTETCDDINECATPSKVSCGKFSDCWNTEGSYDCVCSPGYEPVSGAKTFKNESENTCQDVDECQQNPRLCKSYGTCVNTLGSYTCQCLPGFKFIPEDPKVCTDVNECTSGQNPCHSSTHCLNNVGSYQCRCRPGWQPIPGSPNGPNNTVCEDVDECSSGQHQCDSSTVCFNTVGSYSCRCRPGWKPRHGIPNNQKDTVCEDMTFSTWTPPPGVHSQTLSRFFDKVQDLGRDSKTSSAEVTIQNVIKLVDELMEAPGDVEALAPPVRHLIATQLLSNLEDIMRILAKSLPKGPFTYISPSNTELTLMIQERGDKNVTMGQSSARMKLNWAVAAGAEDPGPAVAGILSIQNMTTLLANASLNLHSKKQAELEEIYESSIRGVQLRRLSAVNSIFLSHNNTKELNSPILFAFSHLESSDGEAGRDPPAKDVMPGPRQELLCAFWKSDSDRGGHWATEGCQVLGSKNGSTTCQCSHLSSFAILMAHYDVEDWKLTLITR

T2: CD97 (ADGRE5) isoform 2 ectodomain, purified and biotinylated (human, UniProt P48960 21-552, biotinylated in vitro using the BirA enzyme)
T2 construct: the whole entry for isoform 2 is named here; also called CD97 isoform 2
T2 sequence: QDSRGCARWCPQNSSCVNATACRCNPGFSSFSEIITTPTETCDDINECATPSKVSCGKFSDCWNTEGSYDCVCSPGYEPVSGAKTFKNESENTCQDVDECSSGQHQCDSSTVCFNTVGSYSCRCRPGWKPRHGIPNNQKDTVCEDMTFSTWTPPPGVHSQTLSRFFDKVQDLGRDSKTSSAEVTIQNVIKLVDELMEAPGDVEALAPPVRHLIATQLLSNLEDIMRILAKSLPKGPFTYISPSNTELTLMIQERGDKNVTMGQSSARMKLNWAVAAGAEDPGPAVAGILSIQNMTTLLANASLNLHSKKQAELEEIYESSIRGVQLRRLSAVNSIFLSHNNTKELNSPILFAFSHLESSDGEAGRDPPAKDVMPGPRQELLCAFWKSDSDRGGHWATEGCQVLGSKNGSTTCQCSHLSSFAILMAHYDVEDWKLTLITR

T3: EMR2 (EGF-like module-containing mucin-like hormone receptor-like 2) isoform 4 ectodomain, purified and … (UniProt Q9UHX3-4 24-447, limits assumed, biotinylated in vitro using the BirA enzyme)
T3 construct: extracellular domain; Close homolog of CD97 used as specificity control
T3 sequence (looked up): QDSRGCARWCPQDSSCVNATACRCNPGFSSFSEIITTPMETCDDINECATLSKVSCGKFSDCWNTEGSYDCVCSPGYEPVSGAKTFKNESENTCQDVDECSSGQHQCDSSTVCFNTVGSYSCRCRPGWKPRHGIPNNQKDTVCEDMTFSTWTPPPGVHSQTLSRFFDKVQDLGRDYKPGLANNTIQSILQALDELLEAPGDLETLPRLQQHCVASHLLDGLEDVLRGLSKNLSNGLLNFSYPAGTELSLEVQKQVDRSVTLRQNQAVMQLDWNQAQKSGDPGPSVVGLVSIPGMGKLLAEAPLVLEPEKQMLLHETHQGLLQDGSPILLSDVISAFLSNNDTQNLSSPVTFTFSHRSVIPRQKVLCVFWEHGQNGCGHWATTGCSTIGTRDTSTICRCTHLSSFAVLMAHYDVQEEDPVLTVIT


Assays:
[1] = biological target: EMR2 (EGF-like module-containing mucin-like hormone receptor-like 2) isoform 1 ectodomain, purified and biotinylated (UniProt Q9UHX3); assay: bead-based binding titration (biotinylated antigen on streptavidin beads, flow cytometry), 1:1 fit
[2] = biological target: T1, CD97 (ADGRE5) isoform 1 ectodomain, …; assay: as above
[3] = biological target: T2, CD97 (ADGRE5) isoform 2 ectodomain, …; assay: as above
[4] = biological target: T3, EMR2 (EGF-like module-containing …); assay: as above
[5] = biological target: T2, CD97 (ADGRE5) isoform 2 ectodomain, …; assay: bead-based binding titration (biotinylated antigen on streptavidin beads, flow cytometry) [Continued]
[6] = biological target: T3, EMR2 (EGF-like module-containing …); assay: as above
[7] = biological target: T1, CD97 (ADGRE5) isoform 1 ectodomain, …; assay: bead-based binding titration (biotinylated antigen on streptavidin beads, flow cytometry), 1:1 fit [Continued]
[8] = biological target: T1, CD97 (ADGRE5) isoform 1 ectodomain, …; assay: bead-based binding assay: biotinylated CD97 isoform 1 on streptavidin beads, Fab titrated, flow cytometry MFI, 1:1 fit; EXPERIMENT 1
Method: (§2) KD values were determined from the curve fitting of a 1:1 binding model.

[9] = biological target: T1, CD97 (ADGRE5) isoform 1 ectodomain, …; assay: bead-based binding assay: biotinylated CD97 isoform 1 on streptavidin beads, Fab titrated, flow cytometry MFI, 1:1 fit; EXPERIMENT 2
Method: as §2

OCI-AML3 cells = assay: Cell viability assay (PrestoBlue) of ADC; type: cell-based, human; conditions: 3 days incubation
Method: (§1) For the cell viability assay, the cells were mixed with ADC (20,000 cells/well), and incubated at 37° C. with 5% CO2 for 3 days. After incubation, cell viability was assessed by PrestoBlue assay (Thermo Fisher), following the manufacturer's protocol. The fluorescence was measured using a FlexStation 3 multi-mode microplate reader (Molecular Devices). Dose-response curves and respective ECso were generated using Prism software (GraphPad). For the cell-killing assay, a 96-well plate was coated with 0.1% poly-D-lysine. The cells were mixed with a diluted Incucyte® Annexin V Green Dye (Sartorius) and ADC (13,500 cells/well), and incubated in an Incucyte live-cell analysis system (Sartorius) at 37° C. with 5% CO2 for 4 days. The percentage of dead cells was analyzed using Incucyte Software (Sartorious).

AML cells = assay: Cell viability assay (PrestoBlue), cell killing specificity; type: cell-based, human; conditions: cells with different CD97 levels
Method: as §1

[10] = biological target: T1, CD97 (ADGRE5) isoform 1 ectodomain, …; assay: bead-based binding assay: biotinylated CD97 isoform 1 on streptavidin beads, Fab titrated, flow cytometry MFI; EXPERIMENT 1 and EXPERIMENT 2
Method: as §2

Molecule | Kd [1] | Kd [2] | Kd [3] | Kd [4] | also measured
Fab 2V10 (Fab, V domains shown, second discovery campaign; biotinylated Fab in the bead assay; same clone as m10 in Fab format; also called Antibody Clone 2V10) VH: EVQLVESGGGLVQPGGSLRLSCAASGFTISSSSIHWVRQAPGKGLEWVAYIYPSSGSTSYADSVKGRFTISADTSKNTAYLQMNSLRAEDTAVYYCARPWYYSTFNKKWWDYQGLDYWGQGTLVTVSS VL: DIQMTQSPSSLSASVGDRVTITCRASQSVSSAVAWYQQKPGKAPKLLIYSASSLYSGVPSRFSGSRSGTDFTLTISSLQPEDFATYYCQQSWWDPITFGQGTKVEIKR | 0.0016 µM | 0.0027 µM | 0.003 µM | 0.0015 µM | –
Fab 2W1 (Fab, V domains shown, second discovery campaign; biotinylated Fab in the bead assay; also called Antibody Clone 2W1) VH: EVQLVESGGGLVQPGGSLRLSCAASGFTVSSSSIHWVRQAPGKGLEWVAYISSSSGSTYYADSVKGRFTISADTSKNTAYLQMNSLRAEDTAVYYCARDFYFGSYYSFGWGLDYWGQGTLVTVSS VL: DIQMTQSPSSLSASVGDRVTITCRASQSVSSAVAWYQQKPGKAPKLLIYSASSLYSGVPSRFSGSRSGTDFTLTISSLQPEDFATYYCQQDSSYPITFGQGTKVEIKR | 0.047 µM | 0.018 µM | 0.018 µM | 0.052 µM | –
Antibody clone C27, Fab format (Fab, V domains shown) VH: EVQLVESGGGLVQPGGSLRLSCAASGFTLSSSSIHWVRQAPGKGLEWVASIYSYYGSTYYADSVKGRFTISADTSKNTAYLQMNSLRAEDTAVYYCARYRGNMYYWESWYGSYWALDYWGQGTLVTVSS VL: DIQMTQSPSSLSASVGDRVTITCRASQSVSSAVAWYQQKPGKAPKLLIYSASSLYSGVPSRFSGSRSGTDFTLTISSLQPEDFATYYCQQSSSSLITFGQGTKVEIKR | – | – | – | – | binding result [5]: no binding (tested: 50 nM); binding result [6]: no binding (tested: 50 nM); Kd [7]: 0.016 µM
N100bHE (Fab, V domains shown, also called A8 N100bHE; Antibody Clone A8 N100bHE; copies: 1 + 1) VH: EVQLVESGGGLVQPGGSLRLSCAASGFTISSYSIHWVRQAPGKGLEWVASISPYYGSTSYADSVKGRFTISADTSKNTAYLQMNSLRAEDTAVYYCARSWYYYEQEPYWYQKEEQALDYWGQGTLVTVSS VL: DIQMTQSPSSLSASVGDRVTITCRASQSVSSAVAWYQQKPGKAPKLLIYSASSLYSGVPSRFSGSRSGTDFTLTISSLQPEDFATYYCQQSVYSPVTFGQGTKVEIK | – | – | – | – | Kd [8]: 0.16 µM; Kd [9]: 0.15 µM
A8-MMAF (conjugate, non-natural residues) VH: EVQLVESGGGLVQPGGSLRLSCAASGFTISSYSIHWVRQAPGKGLEWVASISPYYGSTSYADSVKGRFTISADTSKNTAYLQMNSLRAEDTAVYYCARSWYYYEQNPYWYQKEEQALDYWGQGTLVTVSS VL: DIQMTQSPSSLSASVGDRVTITCRASQSVSSAVAWYQQKPGKAPKLLIYSASSLYSGVPSRFSGSRSGTDFTLTISSLQPEDFATYYCQQSVYSPVTFGQGTKVEIKRTV | – | – | – | – | cell killing (cell viability) (OCI-AML3 cells): potently killed OCI-AML3 cells in a dose-dependent manner; also recorded: potent cell-killing effect on OCI-AML3 cells; cell killing specificity versus cell-surface CD97 level (AML cells): correlated with the cell-surface CD97 level; also recorded: inhibited cell growth only for the cells expressing a high level of CD97
W100eHA (Fab, V domains shown, also called A8 W100eHA; Antibody Clone A8 W100eHA; copies: 1 + 1) VH: EVQLVESGGGLVQPGGSLRLSCAASGFTISSYSIHWVRQAPGKGLEWVASISPYYGSTSYADSVKGRFTISADTSKNTAYLQMNSLRAEDTAVYYCARSWYYYEQNPYAYQKEEQALDYWGQGTLVTVSS VL: DIQMTQSPSSLSASVGDRVTITCRASQSVSSAVAWYQQKPGKAPKLLIYSASSLYSGVPSRFSGSRSGTDFTLTISSLQPEDFATYYCQQSVYSPVTFGQGTKVEIK | – | – | – | – | binding result [10]: no binding

Reference: patent US20250051474A1, “ANTI-CD97 ANTIBODIES AND ANTIBODY-DRUG CONJUGATES” (New York University, priority 2023, published 2025)
